Results: article PMC3324563 (Biochemistry, 2012)
“And” between values parts separate entries of the source, which are not always exact repeats. Identical values can stand only once.

B1: Methanocaldococcus jannaschii prolyl-tRNA synthetase (ProRS) (enzyme, UniProt Q58635 1-455, looked up)
chain: MEFSEWYSDILEKAEIYDVRYPIKGCGVYLPYGFKIRRYTFEIIRNLLDESGHDEALFPMLIPEDLLAKEAEHIKGFEDEVYWVTHGGKTQLDVKLALRPTSETPIYYMMKLWVKVHTDLPIKIYQIVNTFRYETKHTRPLIRLREIMTFKEAHTAHSTKEEAENQVKEAISIYKKFFDTLGIPYLISKRPEWDKFPGAEYTMAFDTIFPDGRTMQIATVHNLGQNFSKTFEIIFETPTGDKDYAYQTCYGISDRVIASIIAIHGDEKGLILPPIVAPIQVVIVPLIFKGKEDIVMEKAKEIYEKLKGKFRVHIDDRDIRPGRKFNDWEIKGVPLRIEVGPKDIENKKITLFRRDTMEKFQVDETQLMEVVEKTLNNIMENIKNRAWEKFENFITILEDINPDEIKNILSEKRGVILVPFKEEIYNEELEEKVEATILGETEYKGNKYIAIAKTY

Legend:
[1] = molecular target: Methanocaldococcus jannaschii HmdIII (Methanocaldococcus jannaschii JAL-1); test: SEC-MALS
[2] = molecular target: Alexa Fluor 488-labeled Methanocaldococcus jannaschii ProRS (Methanocaldococcus jannaschii) (UniProt Q58635); test: fluorescence polarisation
SEC-MALS = molecular target: the molecule itself; test: SEC-MALS
[3] = molecular target: B1; test: fluorescence polarisation

With “Methanocaldococcus jannaschii HmdIII (natural protein)” the stoichiometry N [1] was 2 and 4 and the Kd [2] was 1.89 µM.

With B1 the “stoichiometry N” value (SEC-MALS) was 2.

B2: Methanocaldococcus jannaschii H2-forming N5,N10-methylene-H4MPT dehydrogenase (Hmd) (enzyme, Methanocaldococcus jannaschii JAL-1, UniProt Q58194 1-358, looked up)
chain: MKIAILGAGCYRTHAAAGITNFMRACEVAKEVGKPEIALTHSSITYGAELLHLVPDVKEVIVSDPCFAEEPGLVVIDEFDPKEVMEAHLSGNPESIMPKIREVVKAKAKELPKPPKACIHLVHPEDVGLKVTSDDREAVEGADIVITWLPKGNKQPDIIKKFADAIPEGAIVTHACTIPTTKFAKIFKDLGREDLNITSYHPGCVPEMKGQVYIAEGYASEEAVNKLYEIGKIARGKAFKMPANLIGPVCDMCSAVTATVYAGLLAYRDAVTKILGAPADFAQMMADEALTQIHNLMKEKGIANMEEALDPAALLGTADSMCFGPLAEILPTALKVLEKHKVVEEEGKTKCEIMSQKE
In the case of B2, the “stoichiometry N” value (SEC-MALS) is reported as 2.

B3: Alexafluor-labeled Methanocaldococcus jannaschii HmdII (natural protein, Methanocaldococcus jannaschii JAL-1, UniProt Q58734 1-353, looked up)
chain: MRNIRKIKVDNMKVSVYGAGNQNLYINKLNLPEKFGGEPPYGGSRMAIEFAEAGHDVVLAEPNKNIMSDDLWKKVEDAGVKVVSDDVEAAKHGEIHVLFTPFGKATFRIAKTIIEHVPENAVICNTCTVSPVVLYYSLEPILRTKRKDVGISSMHPAAVPGTPQHGHYVIGGKTTDGKELATEEQIKKAVELAKSAGKEAYVVPADVSSVVADMGSLVTAVALSGVLDYYTVGRKIINAPKKMIEQQVIMTLQTMASLVETSGIEGMVKALNPELLIRSASSMKLLDRQKDLDAALEILQNLDETLKAEVEKAEIKPTTLVAAQSLVKEIKTLIGGAAAEGAIKRSARKLFEH
modifications: Alexafluor label (AlexaFluor 488), site not stated
B3: binds [3].
